This passage reports Km and kcat results from publication PMC9868417, “Functional characterization of a novel aminoglycoside phosphotransferase, APH(9)-Ic, and its variant from Stenotrophomonas maltophilia” (Frontiers in Cellular and Infection Microbiology, 2023).

This data set has as its system CN[C@@H]1[C@H](O)[C@H](NC)[C@H]2O[C@@]3(O)C(=O)C[C@@H](C)O[C@H]3O[C@@H]2[C@H]1O. Kind of data set: purified protein. The conditions noted are these: 2 mM ATP, 10 mM MgCl2, 20 mM KCl, 100 mM HEPES pH 7.0, 37 °C. The format is biochemical, Stenotrophomonas maltophilia.

As for “APH(9)-Ic (Stenotrophomonas maltophilia K279a)”, the Km came out at 31 ± 5 µM and the kcat is 1.09 ± 0.09 s⁻¹.
